This note sets out measurements from patent US20210355220A1.

Experiment in all cases: flow cytometry on transfected HEK293 cells, background control
For orientation: A flow cytometer gives signals particle by particle.

For test [1], the target named is hPDL1 on HEK293 cells (human) (UniProt Q9NZQ7).
For test [2], the target named is hPDL2 on HEK293 cells (human) (UniProt Q9BQ51).
In test [3] the target is hPD1 on HEK293 cells (human) (UniProt Q15116).
In test [4] the target is hICOS on HEK293 cells (human) (UniProt Q9Y6W8).
For test [5], the target named is human CTLA-4 expressed on cells (human) (UniProt P16410).
Test [6] has as its target hCD28 on HEK293 cells (human) (UniProt P10747).
The target of test [7] is hBTLA on HEK293 cells (human) (UniProt Q7Z6A9).

hICOS on HEK293 cells (human), sequence (Q9Y6W8 21-199): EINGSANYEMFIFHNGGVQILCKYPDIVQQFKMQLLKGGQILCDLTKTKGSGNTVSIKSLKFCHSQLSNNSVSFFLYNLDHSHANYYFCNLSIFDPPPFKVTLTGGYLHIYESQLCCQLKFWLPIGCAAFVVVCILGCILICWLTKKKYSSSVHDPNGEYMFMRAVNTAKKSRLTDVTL
hPDL2 on HEK293 cells (human), sequence (Q9BQ51 20-273): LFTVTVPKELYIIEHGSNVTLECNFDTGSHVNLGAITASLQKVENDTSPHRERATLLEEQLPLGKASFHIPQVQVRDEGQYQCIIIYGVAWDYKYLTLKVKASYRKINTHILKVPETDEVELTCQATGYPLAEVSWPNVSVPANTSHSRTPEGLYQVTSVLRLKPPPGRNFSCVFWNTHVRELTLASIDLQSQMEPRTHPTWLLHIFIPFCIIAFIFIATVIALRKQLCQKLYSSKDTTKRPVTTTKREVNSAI
human CTLA-4 expressed on cells (human), sequence (P16410 36-223): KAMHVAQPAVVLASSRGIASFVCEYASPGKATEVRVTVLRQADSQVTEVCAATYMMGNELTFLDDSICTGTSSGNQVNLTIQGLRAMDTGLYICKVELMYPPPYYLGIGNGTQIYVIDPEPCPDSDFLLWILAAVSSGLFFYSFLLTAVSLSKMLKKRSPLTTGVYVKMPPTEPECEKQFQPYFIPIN
hPD1 on HEK293 cells (human), sequence (Q15116 25-288): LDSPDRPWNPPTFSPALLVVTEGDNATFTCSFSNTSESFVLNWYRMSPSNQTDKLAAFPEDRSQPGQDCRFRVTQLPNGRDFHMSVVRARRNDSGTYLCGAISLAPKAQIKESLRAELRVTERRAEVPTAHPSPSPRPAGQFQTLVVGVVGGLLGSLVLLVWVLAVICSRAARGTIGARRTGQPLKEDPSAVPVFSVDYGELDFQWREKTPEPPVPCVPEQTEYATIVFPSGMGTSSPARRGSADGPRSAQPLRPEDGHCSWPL
hPDL1 on HEK293 cells (human), sequence (Q9NZQ7 19-290): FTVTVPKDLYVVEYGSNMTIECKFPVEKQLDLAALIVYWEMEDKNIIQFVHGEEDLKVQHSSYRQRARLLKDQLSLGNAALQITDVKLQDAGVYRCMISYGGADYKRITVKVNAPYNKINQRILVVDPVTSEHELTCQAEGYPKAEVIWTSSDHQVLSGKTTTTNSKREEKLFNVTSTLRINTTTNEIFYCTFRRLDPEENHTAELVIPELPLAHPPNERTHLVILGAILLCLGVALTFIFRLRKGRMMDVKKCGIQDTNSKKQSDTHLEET

With “Secondary Antibody only (anti-human labeled secondary antibody)”, the MFI in test [1] was 68 MFI; in test [2] it was 71 MFI; in test [3], 74 MFI; in test [4] it was 67 MFI; in test [5], 78 MFI; in test [6], 69 MFI. The same substance displayed an MFI in test [7] of 82 MFI.
